According to patent US12305177B2, “Methods and platforms for sustainable high yield terpenoid production” (Purdue Research Foundation, priority 2019, dated 2025):

Legend:
[1] = substrate: CC(C)=CCOP(=O)(O)OP(=O)(O)O; assay: purified protein, by the assay type; settings: 100 mM TAPS pH 8.5, 10 mM MgCl2, 37° C., means ± SD, n = 3, pH 8.5, 37.0 °C
[2] = substrate: CC(C)=CCC/C(C)=C/CC/C(C)=C/CO[P@@](=O)(O)OP(=O)(O)O; assay: purified protein, by the assay type; settings: 100 mM TAPS pH 8.5, 10 mM MgCl2, 37° C., means ± SD, n = 3, pH 8.5, 37.0 °C
[3] = substrate: C=C(C)CCOP(=O)(O)O; assay: purified protein, by the assay type; settings: other: substrate of N. tabacum IPK; pH 7.5, 30° C.; pH 7.5; 30.0 °C
[4] = substrate: CC(C)=CCC/C(C)=C/COP(=O)(O)O; assay: NtIPK kinetics, lactate dehydrogenase/pyruvate kinase coupled assay; assay type: biochemical; settings: other: substrate of N. tabacum IPK, pH 7.5, 30° C.
[5] = substrate: CC(C)=CCOP(=O)(O)O; assay: as above; assay type: biochemical; settings: other: substrate of N. tabacum IPK, pH 7.5, 30° C.

B1: A. thaliana Nudx1 (Arabidopsis thaliana) (protein)
chain: MSTGEAIPRVAVVVFILNGNSILLGRRRSSIGNSTFALPGGHLEFGESFEECAAREVMEETGLKIEKMKLLTVTNNVFKEAPTPSHYVSVSIRAVLVDPSQEPKNMEPEKCEGWDWYDWENLPKPLFWPLEKLFGSGFNPFTHGGGD
- Km ([1]; other: substrate of AtNudx1): 10.7 ± 1.8 µM
- kcat ([1]; other: substrate of AtNudx1): 1.7 ± 0.07 s⁻¹
- kcat/Km ([1]; other: substrate of AtNudx1): 1.6 × 10^5 ± 0.3 M^−1 s^−1
- Km ([2]; other: substrate of AtNudx1): 8.7 ± 1.6 µM
- kcat ([2]; other: substrate of AtNudx1): 1.35 ± 0.06 s⁻¹
- kcat/Km ([2]; other: substrate of AtNudx1): 1.6 × 10^5 ± 0.3 M^−1 s^−1

B2: A. thaliana Nudx3 (Arabidopsis thaliana) (protein)
chain: MAEEHFDVLTKSGEKTGVSKPRGEVHRDGDYHRAVHVWIFVETTQQLLLQLRSDDKDSWPGQWDISSAGHISAGDTSLLSAQRELEEELGVKLPKDAFEKIFVFLQECVTNDGKFINNEFNDVYLVTILHPIPLEAFTLQKEEVSAVKYVPYEEYRNFLSKEDPAYVPYDVNGEYGKLFDIIRQRCQVNTEARSLSLQKQLQRYSPVTLEAKLTELSEADQKALGLIVKAAKIMDDIFYEQVWNSNPALRDWLKDHANASKLDKLKWDYFTINKSPWSSLDENEAFLSTADSAVKLLPGATKAIAGWKGLEYRAAFPVTKPPGANFYPPDMDKMEFTLWLNGLTEEQKHAATGFFSVIKRRSEANLDASDHLASSTKKLPDSNSDLYSIPYSEIYRPFLKKASEFLQKAGDLVSSPSLKKLLHSKAEAFLSNEYYESDIAWMDLDSKLDITIGPYETYEDEIFGYKATFETFIGIRDDKATADLKLFGDNLKLLEDNLPLESVYKSTDVSAAPIRVIQLIYNSGDVKGPQTVAYNLPNDEKIVKDRGTSMVMLKNVQEAKFEHILKPIAEITISKEQRGLVDFDSFFTHTICHECCHGIGPHTITLPGGQTSTVRKELQEVHSAMEEAKADIVGLWALKFLITKGLLSKSMVESMYVSFLAGCFRSIRFGLTEAHGKGQALQFNYLYEKGAFVFHEDSTFSVDFAKIEGAVESLSHEILTIQGKGDKNAATLLLNKYCTITGPLKTALENLERVKVPVDISPTFPLAEALMN
- Km ([1]; other: substrate of AtNudx3): 44 ± 8 µM
- kcat ([1]; other: substrate of AtNudx3): 7.1 ± 0.3 s⁻¹
- kcat/Km ([1]; other: substrate of AtNudx3): 1.6 × 10^5 ± 0.3 M^−1 s^−1
- Km ([2]; other: substrate of AtNudx3): 58 ± 10 µM
- kcat ([2]; other: substrate of AtNudx3): 3.3 ± 0.3 s⁻¹
- kcat/Km ([2]; other: substrate of AtNudx3): 5.7 × 10^4 ± 0.5 M^−1 s^−1

B3: N. tabacum IPK (Nicotiana tabacum) (protein)
chain: MEQNKASAPVPPTKRVRCIVKLGGAAITCKNKLETIDEENLTEVSSQLRQALIPNSDSAKILGMDWSKRPGQSEPPSFVDEFSDQPVADSESFIVVHGAGSFGHFQASKSGVHKGGLSRPLVKAGFVATRISVTSLNLEIVRALAREGIPSIGMSPFSCGWSTCQRNMTEADISMVIKAIDAGFIPVLHGDAVLDTLQECTILSGDVIIRHLAAELKPEFVVFLTDVLGVYDRPPVEPGAVLIREIAVREDGSWSVVKPRLEDTSKPVEFTVAAHDTTGGMVTKITEAAMIAKLGIDVYITKVGAGRNGPLSESPEWNLERQHT
- Km [3]: 4.0 ± 1.5 µM
- kcat [3]: 0.93 s⁻¹
- kcat/Km [3]: 230000 M⁻¹ s⁻¹
- Km [4]: 100 ± 60 µM
- kcat [4]: 0.0017 ± 0.0002 s⁻¹
- kcat/Km [4]: 17 M⁻¹ s⁻¹
- Km [5]: 8.5 ± 2.3 µM
- kcat [5]: 1.2 ± 0.06 s⁻¹
- kcat/Km [5]: 140000 M⁻¹ s⁻¹
